Laboratory results taken from the supplement of paper PMC12667976.
± gives the standard error.

B1: library; numbered along this chain (parent)
chain: MATDAALRRLLRLHRTEIAVAVDSAFPLLHALADHDVVPEDKFQETLHLKEKEGCPQAFHALLSWLLTQDSTAILDFWRVLFKDYNLERYGRLQPILDSFPKDVDLSQPRKGRKPPAVPKALVPPPRLPTKRKASEEARAAAPAALTPRGTASPGSQLKAKPPKKPESSAEQQRLPLGNGIQTMSASVQRAVAMSSGDVPGARGAVEGILIQQVFESGGSKKCIQVGGEFYTPSKFEDSGSGKNKARSSSGPKPLVRAKGAQGAAPGGGEARLGQQGSVPAPLALPSDPQLHQKNEDECAVCRDGGELICCDGCPRAFHLACLSPPLREIPSGTWRCSSCLQATVQEVQPRAEEPRPQEPPVETPLPPGLRSAGEEVRGPPGEPLAGMDTTLVYKHLPAPPSAAPLPGLDSSALHPLLCVGPEGQQNLAPGARCGVCGDGTDVLRCTHCAAAFHWRCHFPAGTSRPGTGLRCRSCSGDVTPAPVEGVLAPSPARLAPGPAKDDTASHEPALHRDDLESLLSEHTFDGILQWAIQSMARPAAPFPS

Variants of: B1
Assay: AIRE transcriptional activation functional score (insulin promoter-GFP; nonsense median 0, synonymous median 1) (normalised score); higher = higher AIRE activity (more reporter activation)
Details: with insulin promoter-GFP reporter in HEK293
Procedure: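 Deep mutational scan of full-length human AIRE (codon-optimized cDNA, DT-POPCode NNN libraries over three regions) integrated at a Bxb1 landing pad in HEK293 cells carrying an insulin core promoter-GFP reporter at a Flp-In site. Cells were sorted for the top 10% GFP about 14 days after transfection. Variant frequency log-ratios (select vs non-select, TileSeq) were rescaled so that the nonsense median is 0 and the synonymous median is 1, then averaged over biological replicates.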

AIRE transcriptional activation functional score, by site and new letter:
L10: G -0.12 ± 0.14; M 0.438 ± 0.057; P 0.292 ± 0.34; N -0.218 ± 0.44; A -0.0675 ± 0.18; R 0.701 ± 0.58; Q -0.766 ± 0.54; W -0.175 ± 0.14; F 0.827 ± 0.25; I 0.238 ± 0.76; D 0.416 ± 0.19; C -0.25 ± 0.31; K -1.76 ± 0.75; Y 1.01 ± 0.24; E -0.413 ± 0.3; H 1.75 ± 0.32; T 0.145 ± 0.36; V -0.151 ± 0.34; S -0.035 ± 0.35
A19: D 0.412 ± 0.59; W -0.29 ± 0.099; I -0.333 ± 0.57; M 1.9 ± 0.1; K 0.838 ± 1.1; H 0.194 ± 0.27; V -0.0384 ± 0.33; F 0.0254 ± 0.21; R 0.348 ± 0.55; C 0.605 ± 0.3; Y -2.2 ± 0.58; L 0.0523 ± 0.27; Q -1.03 ± 0.17; P -0.228 ± 0.44; T -0.102 ± 0.31; E 0.513 ± 0.43; G 0.563 ± 0.33; S 0.921 ± 0.61
I18: P -0.146 ± 0.3; E 0.682 ± 0.3; Q -0.126 ± 0.07; N -0.247 ± 0.45; R 0.483 ± 0.28; L 0.304 ± 0.57; W 0.00284 ± 0.15; G 0.378 ± 0.28; H 0.614 ± 0.35; Y -0.479 ± 0.28; D 0.751 ± 0.068; K 0.219 ± 0.83; M 0.409 ± 0.13; T -0.194 ± 0.67; C -0.426 ± 0.095; V -0.092 ± 0.32; A -0.708 ± 0.62; S 0.138 ± 0.48; F 0.0176 ± 0.2
L13: V 0.593 ± 0.48; H 0.357 ± 0.16; A 0.273 ± 0.21; W 0.425 ± 0.079; M 1.23 ± 0.27; F 1.11 ± 0.37; S -0.217 ± 0.59; D -0.291 ± 1.1; G -0.0939 ± 0.53; Q 0.368 ± 0.3; R 1.36 ± 0.45; E 0.79 ± 0.053; T 0.418 ± 0.36; P 0.275 ± 0.3; N -0.209 ± 0.12; C 0.26 ± 0.64; I 0.695 ± 0.26; Y 1.42 ± 0.61
T16: P -0.109 ± 0.47; N 0.597 ± 0.079; F -0.112 ± 0.16; G 0.0399 ± 0.37; D -0.128 ± 0.45; V 0.0381 ± 0.39; M 0.203 ± 0.12; K -0.208 ± 0.32; Y 0.309 ± 0.36; C 0.227 ± 0.26; E 1.64 ± 0.14; A -0.419 ± 0.84; R -0.0166 ± 0.31; L -0.113 ± 0.4; I -0.0145 ± 0.17; Q -0.475 ± 0.078; S -0.287 ± 0.29; W -0.366 ± 0.048; H -0.704 ± 0.84
A21: C 0.675 ± 0.39; F -0.0679 ± 0.18; D -0.73 ± 0.38; E 0.657 ± 0.37
E17: Q -0.406 ± 0.85; T 0.383 ± 0.71; I -0.454 ± 0.54; V 0.0123 ± 0.26; R -0.438 ± 0.75; L 0.113 ± 0.36; H 0.241 ± 1; D 1.42 ± 0.72; K 0.389 ± 0.19; C -0.595 ± 0.37; W -0.29 ± 0.14; P -0.151 ± 0.34; A 0.78 ± 0.58; G -0.233 ± 0.71; Y -0.411 ± 0.17; S -0.0199 ± 0.23; N -0.662 ± 0.64; M 0.896 ± 0.27; F -0.224 ± 0.25
H14: G 0.338 ± 0.25; E -1.27 ± 0.55; A -0.0434 ± 0.09; N 1.68 ± 0.1; W 0.335 ± 0.094; D -0.577 ± 0.094; F 0.561 ± 0.32; Y 0.888 ± 0.31; Q 0.144 ± 0.28; V -0.238 ± 0.39; I -0.18 ± 0.47; L -0.153 ± 0.31; R -0.348 ± 0.51; M -0.84 ± 0.27; T 0.312 ± 0.1; P -0.256 ± 0.64; C -0.236 ± 0.35; S 0.00226 ± 0.49
R12: W -0.0189 ± 0.097; G 0.415 ± 0.41; T -0.393 ± 0.21; C -0.448 ± 0.53; A -0.914 ± 0.56; L 0.419 ± 0.69; F -0.626 ± 0.18; M 0.457 ± 0.063; E -0.463 ± 0.9; D -0.77 ± 0.14; Q -1.11 ± 0.89; V 0.442 ± 0.52; Y -0.191 ± 0.23; K 1.84 ± 0.66; H -0.211 ± 0.16; S -0.0905 ± 0.47; P 0.187 ± 0.17; I -0.464 ± 0.25
V20: C -0.981 ± 0.093; A -0.889 ± 0.64; L 0.278 ± 0.32; Q -0.25 ± 0.26; F 0.146 ± 0.077; G -0.208 ± 0.36; D 0.0604 ± 0.26; S -0.474 ± 0.42; E -1.26 ± 0.12; R -0.283 ± 0.69; I 1.31 ± 0.54; M 0.622 ± 0.34; W 0.633 ± 0.12; T 0.0422 ± 0.34; Y 0.662 ± 0.42; K -0.579 ± 0.17; H -0.433 ± 0.067; P 0.184 ± 0.63; N -0.0183 ± 0.18
L7: C -1 ± 0.98; V -0.199 ± 0.32; I 0.982 ± 0.18; M 0.507 ± 0.28; F -0.323 ± 0.33; Q 0.381 ± 0.63; H 0.927 ± 0.78; W 0.0852 ± 0.06; N -0.876 ± 0.22; K -0.0956 ± 0.16; G -0.106 ± 0.71; Y 0.122 ± 0.12; R 0.0717 ± 0.84; D -0.451 ± 0.08; T 1.26 ± 0.37; P 0.0964 ± 0.66; A -0.112 ± 0.16; S 0.248 ± 0.41
A2: G 0.545 ± 0.1; P 1.55 ± 0.37; V -0.0464 ± 0.12; S 1.27 ± 0.12; E 1.14 ± 0.08; T 0.369 ± 0.19
D4: E 1.26 ± 0.14; V 0.202 ± 0.24; N 0.245 ± 0.27; I 0.179 ± 1; C 0.509 ± 0.18; Q -3.53 ± 0.6; W 0.262 ± 0.053; F 0.414 ± 0.23; S 0.199 ± 0.46; A 0.529 ± 0.99; T -0.494 ± 0.11; Y 0.616 ± 0.39; L 0.0531 ± 0.29; H -0.661 ± 0.68; P -0.0888 ± 0.36; R -0.235 ± 0.59; G 0.166 ± 0.2
L11: T -0.0406 ± 0.65; R 0.101 ± 0.38; H -0.271 ± 0.11; A -0.709 ± 0.55; K 0.379 ± 0.093; G -0.259 ± 0.73; W 0.256 ± 0.083; V 0.213 ± 0.5; Q 0.602 ± 0.51; E -0.17 ± 0.24; P 0.466 ± 0.29; D 0.606 ± 0.6; S 0.17 ± 0.34; I 0.208 ± 0.44; Y -0.339 ± 0.4; C -0.106 ± 0.11; M 0.0247 ± 0.081; F 0.127 ± 0.061; N 0.0103 ± 0.076
A5: C 1.17 ± 0.35; L 1 ± 0.51; I 1.2 ± 0.62; T 1.04 ± 0.38; N 0.61 ± 0.13; M 0.955 ± 0.1; E 1.41 ± 0.12; W 0.849 ± 0.1; P 0.767 ± 0.54; Y 0.397 ± 0.37; R 1.72 ± 0.62; F 0.709 ± 0.23; H 0.534 ± 0.3; V 1.45 ± 0.2; G 0.74 ± 0.35; S 1.24 ± 0.36; D 0.947 ± 0.62; Q 0.782 ± 0.05
R15: Y -0.904 ± 0.22; A -0.222 ± 0.32; P -0.373 ± 1; K -1.95 ± 0.17; H -0.146 ± 0.19; C -0.257 ± 0.17; V 0.0544 ± 0.6; G -0.349 ± 0.32; D 0.279 ± 0.29; I 0.486 ± 0.75; Q 0.45 ± 0.067; L 0.37 ± 0.32; W 0.0452 ± 0.059; M 0.112 ± 0.11; T 0.316 ± 0.23; F 0.0396 ± 0.61; S -0.0525 ± 0.75
R9: G 0.856 ± 0.66; K -2.37 ± 0.13; M 0.633 ± 0.12; F -0.124 ± 0.19; Y 0.868 ± 1.2; I 0.0495 ± 0.27; C -0.35 ± 0.18; E -0.057 ± 0.29; W 0.515 ± 0.082; V 0.133 ± 0.31; N 1.38 ± 0.35; Q 1.13 ± 0.62; A 1.09 ± 0.34; D 0.539 ± 0.48; H 0.195 ± 0.13; S 1.39 ± 0.75; P 0.671 ± 0.54; L 0.268 ± 0.39; T 0.253 ± 0.34
A6: D 1.01 ± 1.3; L 1.45 ± 0.73; M 0.372 ± 0.17; V 0.772 ± 0.51; N -0.00395 ± 0.93; I 0.395 ± 0.37; S 0.223 ± 0.61; G 1.2 ± 0.27; H 0.532 ± 0.11; W 0.676 ± 0.14; C 0.756 ± 0.3; Q 1.03 ± 0.075; R 0.648 ± 0.17; Y 2.12 ± 1.1; E 1.37 ± 0.1; F 1.43 ± 0.77; P 0.153 ± 0.34; T 0.643 ± 0.46
R8: N -0.26 ± 0.14; Y -0.316 ± 0.91; I 0.433 ± 0.29; C 0.131 ± 0.12; W -0.126 ± 0.086; K 0.485 ± 0.11; S 0.281 ± 0.48; H -0.286 ± 0.2; L -0.0603 ± 0.58; A -0.421 ± 0.42; D 0.401 ± 0.51; F -0.127 ± 0.28; G -0.0812 ± 0.54; V -0.0144 ± 0.31; Q -1.39 ± 0.14; P -0.196 ± 0.54; E -0.344 ± 0.079; T -0.0815 ± 0.38
T3: W 2.08 ± 0.48; P -0.0536 ± 0.46; R 1.18 ± 0.6; I -0.128 ± 0.25; A 1.09 ± 0.56; E -0.211 ± 0.065; M 1.74 ± 0.052; K 1.31 ± 0.12; G 0.0107 ± 0.19; N 0.808 ± 0.74; L 1.26 ± 0.31; V 0.465 ± 0.14; S 0.972 ± 0.75
